Results: US20110214193A1, “BIOMARKER FOR MICRODOMAIN DISEASE” (SUMITOMO CHEMICAL COMPANY, LIMITED, priority 2008, published 2011)

Columns and labels:
Assay type in all cases: cell-based
[1] = test system: differentiated mouse adipocyte cell line 3T3-L1; experiment: Enhancing action by anti-GM2A antibody and ligand on glucose uptake (2-deoxyglucose incorporation)
Method: (§1) Mouse adipocyte cell line 3T3-L1 was purchased from Health Science Research Resources Bank. Cells of the purchased mouse adipocyte cell line […] were cultured in a D-MEM containing 10% fetal bovine serum (hereinafter referred to as D-MEM (10)) at 37° C. under an atmosphere of 5% CO2. The cultured cells were plated on a 6-well plate. Two days after becoming confluent, the culture solution was exchanged for a pre-differentiation culture solution (D-MEM (10) containing 1 μg/ml insulin, 0.5 mM 3-isobutyl-1-methylxanthine, and 1 μM dexamethasone), and the culture was further cultured for another 4 days. […] Here, the protein concentration of the specimen was measured using BCA Protein Assay Reagent (catalogue No. 23228, Pierce) using bovine serum albumin as a standard protein.
The amount of 2-deoxyglucose in the specimen was quantitatively determined according to the following method. To a plate for fluorescence measurement, were added 100 μl of an assay buffer (50 mM triethanolamine (pH 8.1), 50 mM KCl, 0.5 mM MgCl2, 0.02% bovine serum albumin, 670 μM ATP, 0.12 μM NADP^+, 25 μM resazurin, 5.5 units/ml hexokinase, 16 units/ml G6PDH, 1 units/ml diaphorase) and 100 μl of the specimen. After keeping the obtained mixture at 37° C. for 90 minutes, the fluorescence intensity of the obtained mixture was measured (excitation wavelength: 530 nm, detection wavelength: 595 nm). […]

[2] = test system: differentiated mouse skeletal muscle cell line C2C12; experiment: Inhibition by GM2A protein of insulin intracellular signaling (Akt phosphorylation, Western blot); conditions: for Phosphorylated Akt/Akt: Insulin + (1 μg/ml, 10 minutes), 24 hours, no insulin = 1.0, insulin alone = 2.1
Method: (§2) Mouse skeletal muscle cell line C2C12 (CRL-1772) and rat pheochromocytoma cell line PC12 (CRl-1721) were purchased from ATCC. Cells of the both cell lines were cultured in a D-MEM medium containing 10% inactivated fetal bovine serum (catalogue No. 14247-15, NACALAI TESQUE, INC.) at 37° C. under an atmosphere of 5% CO2. Cells of differentiated mouse skeletal muscle cell line C2C12 were prepared by exchanging the medium for a D-MEM containing 2% inactivated equine serum and culturing the mixture for […].
(§3) Human GM2A protein was prepared as follows. First, a cDNA was prepared from human lung cancer cell line HARA-B (catalogue No. JCRB1080.1, Health Science Research Resources Bank), using oligo(dT). Using the prepared cDNA, a PCR fragment containing the full length of human GM2A gene was obtained. The obtained PCR fragment was inserted into pET24a vector (catalogue No. 69749-3, Novagen), whereby human GM2A/pET24a plasmid was prepared. Next, after human GM2A/pET24a was added to Escherichia coli BL21 (DE3) pLysS (catalogue No. 69451-4, Novagen) to transform the Escherichia coli, the obtained Escherichia coli was cultured on shaking in an LB medium containing 50 μg/ml kanamycin at 37° C. until OD600=about 0.5. Then, after Isopropyl-β-thiogalactopyranoside (catalogue No. 9030, Takara Bio Inc.) was added to the obtained culture so that the final concentration could be 0.5 mM, the culture was further cultured on shaking at 18° C. for 3 hours. Bacterial cells were collected by centrifuging the obtained culture, and the collected bacterial cells were sonicated. Then, the obtained homogenate was centrifuged at 11,000 rpm for 30 minutes. After Ni-NTA agarose (catalogue No. 1018244, Qiagen) was added to the obtained supernatant and left at 4° C. for 2 hours, the obtained left object was washed 5 times. From the obtained washed object, an elution fraction of a protein was obtained by elution of a protein with 250 mM imidazole. The obtained elution fraction was purified by anion exchange chromatography HiTrapQ HP, whereby human GM2A protein was prepared. […]

[3] = test system: rat pheochromocytoma cell line PC12; experiment: Inhibition by GM2A protein of NGF intracellular signaling (Akt phosphorylation, Western blot); conditions: for Phosphorylated Akt/Akt: NGF + (0.1 μg/ml, 10 minutes), 24 hours, no NGF = 1.0, NGF alone = 1.8
Method: as §2, §3

[4] = test system: undifferentiated mouse skeletal muscle cell line C2C12; experiment: Inhibition by GM2A protein of leptin intracellular signaling (AMPK alpha phosphorylation, Western blot); conditions: for Phosphorylated AMPK alpha/AMPK alpha: Leptin + (0.1 μg/ml, 30 minutes), 24 hours, no leptin = 1.0, leptin alone = 1.9
Method: as §2, §3

[5] = test system: mouse adipocyte cell line 3T3-L1; experiment: Inhibitory action by GM2A protein on glucose uptake (2-deoxyglucose incorporation); conditions: for Amount of 2-Deoxyglucose: relative value per amount of protein, Insulin +, no insulin = 100, insulin alone = 215
Method: as §1, with “days. Next, after the pre-differentiation culture solution was exchanged for a post-differentiation culture solution (D-MEM (10) containing 1 insulin) and the culture was cultured for 3 days, the culture solution was exchanged for a D-MEM (10) containing mouse GM2A protein, and the culture was further cultured for another day.” for “days.”
The amount of 2-deoxyglucose in the specimen was quantitatively determined according to the following method. To a plate for fluorescence measurement, were added 100 μl of an assay buffer (50 mM triethanolamine (pH 8.1), 50 mM KCl, 0.5 mM MgCl2, 0.02% bovine serum albumin, 670 μM ATP, 0.12 μM NADP^+, 25 μM resazurin, 5.5 units/ml hexokinase, 16 units/ml G6PDH, 1 units/ml diaphorase) and 100 μl of the specimen. After keeping the obtained mixture at 37° C. for 90 minutes, the fluorescence intensity of the obtained mixture was measured (excitation wavelength: 530 nm, detection wavelength: 595 nm). A calibration curve was created using 2-deoxyglucose of 500 μM, 250 μM, 125 μM and 0 μM (purified water) as a standard, and quantitative determination was carried out on the basis of the calibration curve. The amount of 2-deoxyglucose incorporated into a cell per the amount of protein of the specimen was calculated as a relative value.

[6] = concentration-dependent, 2 and 4 μg/ml

## ganglioside GM2
[1]
  intracellular incorporation of 2-deoxyglucose: enhanced
[1]; relative value, 1 μM, 1 day, DMSO = 100
  Amount of 2-Deoxyglucose: 120

B1: GM2AP: Human GM2A protein expressed in Escherichia coli from human GM2A/pET24a, purified by Ni-NTA agarose and anion exchange chromatography (protein)
chain: HLKKPSQLSSFSWDNCDEGKDPAVIRSLTLEPDPIIVPGNVTLSVMGSTSVPLSSPLKVDLVLEKEVAGLWIKIPCTDYIGSCTFEHFCDVLDMLIPTGEPCPEPLRTYGLPCHCPFKEGTYSLPKSEFVVPDLELPSWLTTGNYRIESVLSSSGKRLGCIKIAASLKGI
[2]; GM2AP 2 μg/ml
  Phosphorylated Akt/Akt: 1.8
[2]; GM2AP 4 μg/ml
  Phosphorylated Akt/Akt: 1.2
[3]; GM2AP 2 μg/ml
  Phosphorylated Akt/Akt: 1.5
[3]; GM2AP 4 μg/ml
  Phosphorylated Akt/Akt: 1.4
[4]; GM2AP 2 μg/ml
  Phosphorylated AMPK alpha/AMPK alpha: 1.0
[4]; GM2AP 4 μg/ml
  Phosphorylated AMPK alpha/AMPK alpha: 0.9

B2: GM2A Protein: mouse GM2A protein added to the culture solution of 3T3-L1 cells in Example 8 (protein)
chain: ARLVPKRLSQLGGFSWDNCDEGKDPAVIKSLTIQPDPIVVPGDVVVSLEGKTSVPLTAPQKVELTVEKEVAGFWVKIPCVEQLGSCSYENICDLIDEYIPPGESCPEPLHTYGLPCHCPFKEGTYSLPTSNFTVPDLELPSWLSTGNYRIQSILSSGGKRLGCIKIAASLKGR
[2]; [6]
  intracellular signaling of insulin: inhibited
[5]; concentration-dependent, 2 and 10 μg/ml
  enhancing action by insulin on intracellular incorporation of 2-deoxyglucose: inhibited
[5]; GM2A Protein 2 μg/ml
  Amount of 2-Deoxyglucose: 184
[5]; GM2A Protein 10 μg/ml
  Amount of 2-Deoxyglucose: 156
[3]; [6]
  intracellular signaling of NGF: inhibited
[4]; [6]
  intracellular signaling of leptin: inhibited
